In the nanobody polyreactivity screen of Harvey et al. (2022):

Assay: yeast display, Sf9 membrane polyspecificity reagent, FACS + sequencing; frameworks hold sequencing errors
Procedure, shortened: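 A nanobody's polyreactivity label depends on the gate it was sorted from. Yeast display cells were stained with 10% biotinylated, detergent-solubilized Sf9 membrane reagent for 1 hour at 4 °C, enriched on streptavidin microbeads and sorted by FACS. The low and high (top ~1%) gates were set on anti-HA fluorescence for expression and streptavidin fluorescence for reagent binding.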

| Sequence | polyreactivity (PSR sort gate) |
| --- | --- |
| QVQLVESGGGLVQAGGSLRLSCAASGRTFYGYAMGWYRQAPGKERELVAAITRSGGSTYYADSVKGRFTISRDNAKNTVYLQMNSLKPEDTAVYYCAAGGQARHDYWGQGTQVTVSS | low polyreactivity |
| QVQLVESGGGLVQAGGSLRLSCAASGSTSYVYAMGWYRQAPGKERELVAANSGSGGRTYYADSVKGRFTISRDNAKNTVYLQMNSLKPEDTAVYYCNALTRPSYPFDYWGLGTQVTVSS | high polyreactivity |
| QVQLVESAGGLVHAGGSLRLSCAASGFIFWYYAMGWDRQSPGKERELVASISRGGDSTYYADSVKGRFTISRDNAKNTVYVQMNSLKPVDTAVYYCNARGRYRKSERRAFDYWGQGTQVTVSS | high polyreactivity |
| QVQLVESGGGLVQAGGSLRLSCAASGRIFYQYAMGWYRQAPGKERELVAAISWNGGRTYYADSVKGRFTISRDNAKNTVYLQMNSPKPEDTAVYYCNAVASKSFYYRDNYWGQGTQVTVSS | high polyreactivity |
| QVQLVESGGGLVQAGGSLRLSCAASGRIFRSYAMGWYRQAPGKERELVAAITSGGSTNYADSVKGRFTISRDNAKNTVYLQMNSLKPEDTAVYYCNADRWKSGYWRYDYWGQGTQVTVSS | low polyreactivity |
| QVQLGESGRGLVQAGGSLRLSCAASGRTSWYYAMGWYSQAPGKERELVATSTRSTGSTYYADSVKGRFTISRDNAKNTVYLQMNSLKPEDTAVYYCAKRRKTQPFYIKWYRVDYWGQGTQVTVST | high polyreactivity |
| QVQLVESGGGLVQAGGSLRLSCAASGFTFYSYAMGWYRQAPGKERELVAAISWSGTRTYYADSVKGRFTISRDNAKNTVYLQMNSLKPEDTAVFYCAARGYRYGYGYWGQGTQVTVSS | high polyreactivity |
| QVQLVESGGGLVQAGGSLRLSCAASGITFYLNAMGWYRQAPGKERELVADITVSGGSTYYADSVKGRFTISRDTAKNTVYLQMNSLIPEDTAVYYCAADLTISYSQEYYYWGQGTQVTVSS | low polyreactivity |
| QVQLVESGGGLVQAGGSLRLSCAASGRIFRYNAMGWYRQAPGKERELVAAITRSGGRTYYADSVKGRFTISRDNAKYTVYLQMNSLKPEDTAVYYCAADKYPSSPYVGDVDYWGQGTQVTVSS | high polyreactivity |
| QVQLVESGGGVVQAGGSLRVRCAASGIIYFIDYAMGWYRQAPGKERELVAAITSGGSTNYADSVKGRFTISRDNAKYTVYLQKNRLKPEDTAVYYCAAYLYSGSQYYFWGQGTQVIVSS | high polyreactivity |
| QVQLVESGGGLVQAGGSLRLSCDASGLIFVDNAMGWYRQAPGKERELVAAIDSGGSTNYADSVKGRFTISRDNAKNTVYLQMNSLKPEDTAVYYCAANTYYWWGIMDYWGPGTQVTVSS | low polyreactivity |
| QVQLVESGGRLVQAGGSLRLSCDASGRTFYTNAMGWYRQEPGKEMELVAAISGRGSTYYADSVTGRFTISRDNAKNTVYLQMNSLKPEDTAVYYCAALLPGRSSSDYWGQGTQVTVSS | high polyreactivity |
| QVQLVESGGGLVQAGGSLRLSSAASGSTFQLYAMRLYRQAPGKETELVAAISGIGDSTYYADSVKGGFTISRDNAKNTVYLQMNSLKPEDTAVYYCAREFSDGLSGKFDYWGQGTQVTGSS | low polyreactivity |
| QLQLVESGGGLVQAGGSLRLSCAASGFTFYAYAMGWYRQAPGKERELVAAINSGGGSRTYYADSVKGRFTISRDNAKNTVYLQMNCLKPEDTAVYYCAARVYGVDGYGYWGQGTEVTVSS | high polyreactivity |
| QVQLVESGGGLVQAGGSLRLSCAASGFTITRYAMGWYRQAPGKERELVAAISKSGGSTFYADSVKGRFTISRDNAKNTVYLQMNSLKPEDTAVYYCAKVLRAKNSFDYWGQGTQVTVSS | high polyreactivity |
| QVQLVESGGGLVQARGSLRLSCAASVRTICNNAMGWYREAPGKERELVAANTSTASRTYYADSEKGRFTISRDNAKNTVYLQMNSLKPEDTAVYYCNRVSHLDYYWGQGTQVTVSS | high polyreactivity |
| QDQLVESGAGLVQAGGSLRLSCAASGRIFTPYAMGGYRHAPRKERELVAVIRDGSTYFADSVKGRFTISRDNAKNTVYFQMKSLKPEETAGYYCRYDIWVWWSGAYDYWGQGTQVTVSS | low polyreactivity |
| QVQLVESGGGLVQAGGSLRLSCAASGFTLTAYAMGWYRQARGKEREFVAAISTSGTRTYYADSVKGRFTISRDNAKNTVYLQMNSLKPEDTAVYYCGARYSGYQYWKFNYWGQGTQVTVSS | high polyreactivity |
| QVQLVESGGGLVQAGGSLRLSCAASGFTFSTNAMGWYRQAPGKERELVAAISRGGSTNYADSVKGRFTISRDIAKNTVYLQMNSLKPEDTAVYYCNAYQSPDEEEYYWGQGTQVTVSS | low polyreactivity |
| QVQLVESGGGLVQAGGSLRLSCAASGNTFRGYAMGWSRQAPGKEMELVAAITSGGRTYYADSVKGRFTISRDNAKNTVYLQMNSLKPEDTAVYYCNARQFAGDEWGQGTLVTVSS | high polyreactivity |
| QVQLQESGGRMVQAGGSLRLSCAASGYISWADYKGWYRQAPGKERELVAGIGYGSTTYYADSVKGRFTISRDNAKNTSYLQMNSLKPEDTAVYYCAVGWYRDSAYKYWGQGTQVTVSS | low polyreactivity |
| QVPLVESGGGLVQAGGSLRLSCAASGITIRGYAMGWYRQAPGKDRELVAAINTRTSTYYADSVKGRFTISRDNAKHTVYLQMNSLKPEDTAVYYCNRDPVYYDYDYWGQGTQVTVSS | low polyreactivity |

| Sequence | polyreactivity (PSR sort gate) |
| --- | --- |
| QVQLVETGGGLVQAGGSLRLSCAASGSIFYAYAMGWYRQAPGKERELVATITSGGSTNYADSVKGRFTISRDNAKNTVYLQMNSLKPEDTAVYYCAVDISYSLGGGFGYDYWGQGTQVTVSS | low polyreactivity |
| QVQLVESGGGLVQAGGSLRLSCAASGSTIGPYARGWYRQAPGKERELVAAIRYSSVRTYYADSVKGRFTISRDNAKNTVYLQMKSLKPEDTAVYYCNAVFWSYTEWGRSDYWGQGTEVTVSS | low polyreactivity |
| QVQLVESGGGLVQAGGSLRLSCAASGRIFPTNAMGWYRQAPGKERELVASIDSGGSTKYADSVKGRFTISRDNAKNTVYLLMNSLKPEDTAVYYRALQVLNYDYWGQGTQVTVSS | low polyreactivity |
| QVQLVESGGGLVQAGGSLRLSCAASGSIFNVYVMGWYRQAPGKERELVASITWTTGSTYADSVKGRFTISRDNAKNSVYFQMNSLKPEDTAVYYCNAEFPEDTSDDYWGQGTQVNVSS | low polyreactivity |
| QVQLVESGGGLVQAGGSLRLTCAASGGTFRLYAMGWYRQAPGKERELVAAISSTGSTYYAASVKGRFTISRDNAKNTVYLQMNSLKPEDTAVYYCNAKLPVTSLKFDYYYWGQGTQVTVSS | high polyreactivity |
| QVQLVESGGGLVQAGGSLRLSCAASGRTFVYYAMGWYRQAPGKERELVAAITSGGGTNYADSVKGRFTISRDNAKNSVYLQMNSLKPEDTAVYYCNADPRWYHFEYGYWGQGTQVTVSS | high polyreactivity |
| QVQLVESGGGLVQAGGSLRLSCPASGLTFQRYAMGWYRQAPGKERELVAAITVGGGRTYYADSVKGRFTISRDNAKNTVYLQMNSLKPEDTAVYYCAADSHASTYDYWGQGTQVTVSS | low polyreactivity |
| QVQRVDSRGGLVQAGGSLRLSCAASGRIFRPNAMGWYRQAHGKQRELVAAITSNGGRTYYADSVKGRFTISRDNAKYTVYLQMNSLKPEDTAVYYCNAAPFRSGDGYWGQGTQVTVSS | high polyreactivity |
| QVQLVESGGGLVQAGGSLRLSCAASGSTFVVNDMGWYRQAPGKERELVAAIRSGTSTNYADSVKGRFTISRDNAKNTVYLQMNSLKPEDTAVYYCNAAITQFAWNRYTLIYDYWGQGTQVTVSS | low polyreactivity |
| QVQLVESGGGLDQAGGSLRLSCAASGSIFYHNAMGWYRQAPGKERELVAAITGSGGSTYYADSVKWRFTISRDNAKNTFYLQMNSLKPEDTAVYYCAADYDYQYRYYYWGQGTQVTVSS | low polyreactivity |
| QVQLVESGGGLVQAGGSLRLSCAASGSTFVKYAMGWYRQAPGKERELVAAINRSGASTYYADSVKGRFTISRDNAKNTVYLQMNSLKPEDTAVYYCAARFSWVGYYWGQGTQVTVSS | high polyreactivity |
| QVQLVESGGGLVQAGGSLRLSCAASGRIFGIYAMGWYRQAPGKERELVARITGGGSTNYADSVKARFTISRDNEKNTVYLQMNSLKPEDTAVYYCASTVRRIVGNITRYDYWGQGTQLTVSS | low polyreactivity |
| QVQLVESGGGLVQAGGSLRLSCAASGITFSSYTMGWYRQAPGKERELVAVISSGGSTNYADSVKGRFTISRDNAKNTVYLQMNSLKPEETAVYYCAARRSKYIPYYGKWYYRAFDYWGQGTQVSVSS | high polyreactivity |
| QVQLVESGGGLVQAGGSLRLSCAASGSTFAIYAMGWYRQAHGKERELVAAIRQRAGSTYYADSVKGRFTISRDNAKNTVYLQMNSLKPEDTAVYYCATATRPISRGYWGQGTQVTVSS | low polyreactivity |
| QVQLVESGGGLVQAGGSLRLSCAASGSTFAVYTMGWYRQAPGKEREMSTSYADSVKGRFTISRDNAKNTVYLQMTCLKPEDTAVYYCNRDFYEFDSNSYRFDYWGQGTQVTVSS | low polyreactivity |
| QVQLVESGGGLVQAGGSLRLSCAASGSIFGLNAMGWYRQAPGKERELVAAIDIIGGSTYYADSVKGRFTISRDNAKNTVYLQMNSLKPEDTAVYYCAAEADFWRFVEYDYWGQGSQVTVSS | low polyreactivity |
| QVQLGESGGGLVQAGGSLRLSCAASGGIFIGNAMGWYRQAPGKERELVAAISFSGGSTYYADSVKGRFTISRDNAKNTVYLQMNSLKPEDTAVYYCARRIGHGSRPYWLETWRYPYDYWGQGTQVTVSS | low polyreactivity |
| QVQLVESGGGLVQAGGSLRLSCAASGRIFKGYVMGWYRQAPGKERELVAAISKSGGRTYYADPVKGRFTISRDNAKNTVYLQMNSLKPEDTAVYYCNAVGVVTYSFYYWGQGTQVTVSS | high polyreactivity |
| QVQLVESGGGLVQAGGSLRLSCAASGSTFTGYDMGWYRQAPGKERELVAAISISGGRTFYADSVKGRFTISRDNAKNTVYLQMNSLKPEDTAVYYCAAYQRGSKYSFDYWGQGTQVTVSS | high polyreactivity |
| QVELVESGGGLVQPGGSLRLSCAASGRTLSRYTMGWYRQAPGKERELVAAISTSGSTYYADSVKGRFTISRDNAKNTVYLQMNSLKPEDTAVYYCAADRFGIGGIRGNDYWGQGTQVTVSS | high polyreactivity |
| QVQLVESGGGLVQAGGSLRLSCAASGSIFAVNAMGWYRQAPGKERELVAAISWRDTGTYYADSVKGRFTISRDNAKNTVYLQMNSLKPEDTAVYYCAADAQVNPYYPDEYWGQGTQVTVSS | low polyreactivity |
